Reference: patent publication US20230287457

Test system: Nla type I-C Cascade + Cas3 expressed in E. coli (Neisseria lactamica)
Experiment: cell_activity
Conditions: PAM 5'-TTC; E. coli plasmid interference

native CRISPR spacer 1 crRNA ; spacer 1 target with 5'-TTC PAM
activity (fold reduction in colony count): 1000
